T1: human factor XII from plasma (Calbiochem) (human, UniProt P00748 20-615)
T1 construct: also called FXII
T1 sequence (looked up): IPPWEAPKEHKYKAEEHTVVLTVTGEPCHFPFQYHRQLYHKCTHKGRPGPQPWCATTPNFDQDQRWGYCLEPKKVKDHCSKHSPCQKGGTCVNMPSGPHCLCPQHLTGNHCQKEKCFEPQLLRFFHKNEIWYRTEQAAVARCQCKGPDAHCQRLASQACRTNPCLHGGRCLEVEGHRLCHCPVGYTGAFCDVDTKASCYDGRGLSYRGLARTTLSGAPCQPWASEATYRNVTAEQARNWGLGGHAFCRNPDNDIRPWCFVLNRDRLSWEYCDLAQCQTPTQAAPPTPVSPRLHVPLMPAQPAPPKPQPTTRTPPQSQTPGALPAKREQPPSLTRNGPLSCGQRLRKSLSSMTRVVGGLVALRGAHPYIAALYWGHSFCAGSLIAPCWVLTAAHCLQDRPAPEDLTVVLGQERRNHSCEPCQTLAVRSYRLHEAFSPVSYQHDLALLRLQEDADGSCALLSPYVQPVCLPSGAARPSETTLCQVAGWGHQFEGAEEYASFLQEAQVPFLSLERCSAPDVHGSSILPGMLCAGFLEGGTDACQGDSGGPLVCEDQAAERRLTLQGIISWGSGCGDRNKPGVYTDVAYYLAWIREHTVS


Columns and labels:
[1] = biological target: T2, tissue-type plasminogen activator (tPA, Actilyse, Boehringer-Ingelheim) (human, UniProt P00750 36-562); experiment: tPA binding (data not shown)
T2 construct: Commercial product; also called recombinant human tPA
T2 sequence (P00750 36-562 limits assumed): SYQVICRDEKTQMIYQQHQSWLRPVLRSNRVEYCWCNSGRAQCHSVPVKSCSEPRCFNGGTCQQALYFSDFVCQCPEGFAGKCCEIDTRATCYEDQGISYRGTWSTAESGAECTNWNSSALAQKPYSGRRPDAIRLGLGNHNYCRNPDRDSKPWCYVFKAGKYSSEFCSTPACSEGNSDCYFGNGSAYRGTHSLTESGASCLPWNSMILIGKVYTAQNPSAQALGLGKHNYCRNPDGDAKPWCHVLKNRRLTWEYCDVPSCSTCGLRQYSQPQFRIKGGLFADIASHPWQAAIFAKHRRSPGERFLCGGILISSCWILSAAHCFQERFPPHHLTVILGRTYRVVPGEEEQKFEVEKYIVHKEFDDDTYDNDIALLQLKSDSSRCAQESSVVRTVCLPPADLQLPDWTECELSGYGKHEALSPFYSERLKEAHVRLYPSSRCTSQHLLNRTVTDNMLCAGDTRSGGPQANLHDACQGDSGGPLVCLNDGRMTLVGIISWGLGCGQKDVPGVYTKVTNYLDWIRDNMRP

[2] = biological target: T3, anti-β2GPI auto-antibodies purified from plasma of patients with the Anti-phospholipid syndrome; experiment: competition ELISA: patient anti-β2GPI auto-antibodies with a β2GPI series in solution on immobilized plasma β2GPI
T3 construct: Polyclonal mixture; also called patient antibodies
Procedure: C. […] Eluted fractions are analyzed on Western blot after SDS-PA electrophoresis. […] Anti-β₂GPI auto-antibodies were purified from plasma of patients with the autoimmune disease Anti-phospholipid syndrome.

[3] = biological target: T2, tissue-type plasminogen activator (tPA, …); experiment: ELISA, immobilized tPA overlaid with a concentration series of β2GPI
[4] = biological target: T1, human factor XII from plasma …; experiment: ELISA, immobilized factor XII overlaid with a concentration series of β2GPI

Row | binding result [1] | IC50 (read off the curve) [2] | Kd [3] | Kd [4] | Binder
1 | binds |  |  |  | KRLEVDIDIGIRS (Preparation with cross-β structure; also called amyloid FP13 K157G) [amyloid fibrin peptide FP13 K157G]
2 |  | ~5 µg/mL | 51 nM | 20 nM | recombinant human β2-glycoprotein I (other, UniProt P02749 20-345, looked up, also called recombinant β2GPI; rβ2GPI) GRTCPKPDDLPFSTVVPLKTFYEPGEEITYSCKPGYVSRGGMRKFICPLTGLWPINTLKCTPRVCPFAGILENGAVRYTTFEYPNTISFSCNTGFYLNGADSAKCTEEGKWSPELPVCAPIICPPPSIPTFATLRVYKPSAGNNSLYRDTAVFECLPQHAMFGNDTITCTTHGNWTKLPECREVKCPFPSRPDNGFVNYPAKPTLYYKDKATFGCHDGYSLDGPEEIECTKLGNWSAMPSCKASCKVPVKKATVVYQGERVKIQEKFKNGMLHGDKVSFFCKNKEKKCSYTEDAQCIDGTIEVPKCFKEHSSLAFWKTDASDVKPC

— US8067187 (CROSSBETA BIOSCIENCES B V, dated 2011)
